# T1: FLT3 (Mus musculus, UniProt Q00342)
# T1 construct: from tissue; host or cells: living mice (sensory neurons / DRG)
# T1 sequence (Q00342 28-1000): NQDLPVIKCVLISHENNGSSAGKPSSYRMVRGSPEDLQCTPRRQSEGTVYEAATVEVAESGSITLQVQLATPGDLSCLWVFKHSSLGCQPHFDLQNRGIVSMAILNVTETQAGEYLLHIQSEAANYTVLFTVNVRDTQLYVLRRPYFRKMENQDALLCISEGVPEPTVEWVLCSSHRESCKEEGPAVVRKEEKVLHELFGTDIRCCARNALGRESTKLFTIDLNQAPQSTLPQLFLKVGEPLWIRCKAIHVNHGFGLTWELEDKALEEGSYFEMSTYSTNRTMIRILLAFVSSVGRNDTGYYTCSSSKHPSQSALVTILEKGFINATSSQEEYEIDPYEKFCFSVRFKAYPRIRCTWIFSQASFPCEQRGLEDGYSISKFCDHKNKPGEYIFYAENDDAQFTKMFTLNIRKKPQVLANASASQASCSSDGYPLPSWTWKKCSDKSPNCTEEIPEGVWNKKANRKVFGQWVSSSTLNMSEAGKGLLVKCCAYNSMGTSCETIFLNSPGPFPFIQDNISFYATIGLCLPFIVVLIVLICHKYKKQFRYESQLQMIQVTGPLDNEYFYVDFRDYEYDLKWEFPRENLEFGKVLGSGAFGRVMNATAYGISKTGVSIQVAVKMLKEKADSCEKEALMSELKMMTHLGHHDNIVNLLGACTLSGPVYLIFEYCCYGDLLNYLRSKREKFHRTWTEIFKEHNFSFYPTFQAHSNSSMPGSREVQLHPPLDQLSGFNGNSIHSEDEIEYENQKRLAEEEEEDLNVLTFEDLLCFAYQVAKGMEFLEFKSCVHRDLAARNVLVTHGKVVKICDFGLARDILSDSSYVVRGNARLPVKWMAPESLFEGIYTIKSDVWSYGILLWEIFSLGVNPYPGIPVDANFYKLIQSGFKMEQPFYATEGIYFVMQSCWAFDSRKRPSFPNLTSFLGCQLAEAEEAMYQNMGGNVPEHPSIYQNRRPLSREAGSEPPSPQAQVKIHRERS
# B1: A3 antibody: human monoclonal antibody against FLT3; VH SEQ ID NO:1, VL SEQ ID NO:2 (antibody, V domains shown)
# VH: EVQLVESGGSLVKPGGSLRLSCAASGFTFSNSYMNWVRQAPGKGLEWISDISGSSRDIDYADFVKGRFTISRDNATNSLYLQMNSLRAEDTAVYYCVRSGNSGMDVWGRGTLVTVSS
# VL: QSVLTQPASVSGSPGQSITISCAGTSSDVGGGYYVSWYQQHPGKAPKLMIYYDSYRPSGVSNRFSGSKSGNTASLTISGLQAEDEADYYCSSYTNNSTRVFGGGTKLEIK
# modifications: Synthetic VH domain of A3; Synthetic VL region of A3
# Target: T1, FLT3
# Experiment: Chronic Constriction Injury (CCI) mouse model, mechanical hypersensitivity (0.6 g von Frey filament)
# Format: in vivo
# Method: The efficacy of the antibody A3 to reverse neuropathic pain was assessed in the Chronic Constriction Injury (CCI) mouse model of persistent peripheral neuropathic pain, consisting in three chronic ligatures tied loosely around the sciatic nerve (Bennett, G. J. & Xie, Y. K. A peripheral mononeuropathy in rat that produces disorders of pain sensation like those seen in man. Pain, 1988, 33:87-107). Neuropathic pain symptoms, such as mechanical hypersensitivity, develop within 10 days post-injury.
# CCI model. The Chronic Constriction Injury (CCI) model was adapted for mice (Costa, B., Comelli, F., Bettoni, I., Colleoni, M. & Giagnoni, G. The endogenous fatty acid amide, palmitoylethanolamide, has anti-allodynic and anti-hyperalgesic effects in a murine model of neuropathic pain: involvement of CB(1), TRPV1 and PPARgamma receptors and neurotrophic factors. Pain, 2008, 139:541-550). Briefly, skin was incised and the sciatic nerve was exposed unilaterally at the […] by dissecting through the biceps femoris. […]
# Mechanical nociception assay. […] The procedure was applied 10 times and the percentage of positive responses was calculated.
# Data and statistical analyses. Data are expressed as the mean ±S.E.M. Statistical significance was determined by two-way analysis of variance (ANOVA) for repeated measures, over time. […]
molecule,measurement,setting,value
B1,mechanical sensitivity (percentage of withdrawal) after CCI injury,"100 μg/animal intraperitoneal, 9 days after CCI, vs control irrelevant antibody",completely reduce mechanical sensitivity to the scores obtained before CCI injury
same,duration of inhibition of CCI-induced pain hypersensitivity,"single injection, 100 μg/animal",48 h

# From patent publication US10781452B2, “FLT3 receptor antagonists for the treatment or the prevention of pain disorders” (INSTITUT NATIONAL DE LA SANTE ET DE LA RECHERCHE MEDICALE …, priority 2010, dated 2020)
